Assay results taken from the supplement of paper PMC12042874.
± gives the uncertainty stated by the source.

Test: amyloid nucleation score (Sup35N fusion, yeast selection) (log enrichment); library NNK2; higher = more nucleation; inactive = no reads after selection
How it was run: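 On medium lacking adenine and uracil, psi-negative yeast expressing peptides of 20 random codons fused to Sup35N were grown 7 days at 30°C after a 24-hour induction with 100 μM copper sulfate. Illumina sequencing of input and output plasmid inserts gave the reads, and sequences under 100 input reads were excluded. The nucleation score is the DiMSum log enrichment of output over input reads, centred on the mode score of non-aggregating sequences.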

Substance | amyloid nucleation score
CIKLRR | inactive
CILLGSWLVNFYVWWSRMPI | -0.031 ± 1
CISKLKFLGCRVE | inactive
CITSSSLCSDPYLCLSAKNL | inactive
CKALQLLKGNLIDYCVPFLV | -1.05 ± 0.48
CKCYTAQCWVSRNLMKRPLT | 0.579 ± 0.49
CKGLNMFLLFSHSHSCMLRG | -1.35 ± 0.39
CKLEQYRASWINLVTHLDEA | 0.073 ± 0.63
CKSSARLIDYTS | -0.682 ± 0.45
CKVHFW | 0.596 ± 0.62
CKWTSKIWMRLVRKSEMSVE | 1.16 ± 0.27
CLAFNFVFIHPSTGAFSRTS | 8.38 ± 0.072
CLAPFHYDQYCKWESDSVSR | -0.438 ± 0.44
CLDPTDTMMRW | 0.82 ± 0.3
CLIAVNTKGRVVHVYGRTGG | 3.53 ± 0.093
CLISRLIVL | -0.038 ± 0.79
CLITLLIMECKYAVDLWGSV | 1.04 ± 0.34
CLLHGCHYLSSYLKFSQSWL | inactive
CLMWVISNSYNECHLGEVGQ | 6.56 ± 0.087
CLPETLVDFWFKAHDAFNFV | inactive
CLQCYYRMSDNCFHSTA | 5.114 ± 0.04
CLSLFTSYV | 0.415 ± 0.31
CLSPW | 0.202 ± 0.46
CMARPMSVLECHSCWEDALG | 0.221 ± 0.31
CMDYHICHIM | 3.89 ± 0.11
CMKAYKIRLLVLEDINSSFS | -1.85 ± 0.48

Substance | amyloid nucleation score
CMKEMLVMLTCYICVSKSLI | 3.66 ± 0.079
CMLCARLHH | 4.13 ± 0.056
CMYVLFLRWLNQAM | inactive
CNDGGENGWKCTGR | 0.497 ± 0.57
CNIAPASKFSIIMPRR | 3.74 ± 0.11
CNMIYNDKSLPKW | -0.26 ± 0.32
CNPASYMSALVGGSVSRDSR | -0.076 ± 0.46
CNRPGSGTHGRCTVMDSTMG | 0.389 ± 0.56
CNRSCLLGDNPCTVWRITLF | -0.644 ± 0.48
CNSDGWCRIGSAVLPVRSID | -0.441 ± 0.35
CNSIDMTHKVTLKMSFIFIE | 6.703 ± 0.061
CNSYEYLRN | -0.035 ± 0.76
CNTCLLSFG | 0.814 ± 0.25
CNTRRLISMRI | -0.234 ± 0.65
CNYRVA | 0.276 ± 0.39
CNYYFVKYQGINGCGTPVKF | 3.01 ± 0.12
CPDHNGRFGSWVGEYHVGLS | 1.43 ± 0.17
CPFVATGDP | -0.849 ± 1.1
CPIYDRTQGLIGLWCLCNEC | -0.668 ± 0.34
CPSVSSRSRELSLLTDQEVI | 0.812 ± 0.4
CPVSAASLSNLFDVAHNGVR | 5.354 ± 0.035
CQGVSYHYLTACRNKLCHES | 0.107 ± 0.79
CRCISVPCVVFVV | -0.142 ± 0.79
CRDSPVKNQGPYLGFM | inactive
CRINFTFDELVVVSQILTWL | 4.07 ± 0.058
CRLCSGLREMQPIRLM | 0.77 ± 0.51

Substance | amyloid nucleation score
CRRENRCNRWFQ | -0.602 ± 0.61
CRRVIAESFYDTSLSCSAVG | 0.877 ± 0.47
CRSATEPCVLSC | 0.56 ± 0.74
CRSCEIVLGFLLSCNMCVLS | 3.79 ± 0.06
CRSFAFTLSNMYLMM | 6.52 ± 0.082
CRTRGMVRLYGTRRK | inactive
CRVRYTGGY | 0.523 ± 0.35
CSAATSGYYMSQDRLSDTTT | -0.184 ± 1.1
CSCSVIGWFLHPVATVINLT | 2.73 ± 0.07
CSEYLCGVKVLTCWFGRRYS | 0.174 ± 0.4
CSFGPIVAD | -1.12 ± 0.63
CSFLSLY | -0.485 ± 0.64
CSFYRSWVLTNWSANVVFTW | -0.217 ± 0.39
CSKDMSQKLVYRLWSIIVMA | -0.542 ± 0.33
CSKLAGKHVNISVGPLWRAG | 0.183 ± 0.53
CSLFLWGLMDLLV | inactive
CSSSNINRFS | 2.99 ± 0.12
CSSSVNCMFITC | 7.87 ± 0.047
CSVSGNLQISFYGNMPINSF | -0.924 ± 0.78
CTAQRNGKYDHGEDSLRLSR | 1.49 ± 0.36
CTFSVF | -1.71 ± 0.48
CTHNTSKVSKMVIVCPRFNL | 6.218 ± 0.035
CTKDTHNRVGHLRSHVDGSL | 0.572 ± 0.8
CTLRAVMSIVRGYFRCYLVC | 0.255 ± 1.1
CTLRSLEAVLRVLIGYALRH | 0.223 ± 0.3
CTNAGRFMTWSNFRYIG | 0.501 ± 0.8

Substance | amyloid nucleation score
CTSDVGGSQERVGSIQANSN | 2.48 ± 0.2
CTVLSDRTCYSSTERLVRIH | inactive
CTVRDSMAGIYLVDLVSCIR | -0.21 ± 0.6
CVFISLNMNKIYMLDNSGQW | 8.445 ± 0.036
CVGGGRQKCEHNVMITLMTF | 4.22 ± 0.056
CVGNNMCSGKNF | inactive
CVHTAVVRILIRAKKAGLIT | inactive
CVIYVKVIIMPVSIVDVGSV | -0.351 ± 0.48
CVLGAVYLHRLTDGCDVKFT | 0.762 ± 0.81
CWDEQLQPS | 0.744 ± 0.45
CWFSVYNTLVGCNLVPTKGD | 6.666 ± 0.065
CWGGISSALRQ | 0.698 ± 0.8
CWNDSRMCR | -0.387 ± 0.26
CWRNTDLKGLGNWPSLLASV | 0.589 ± 0.57
CWVIKGRAKCV | -0.26 ± 1
CYARSASGVAIAVRRKRGVQ | 1.23 ± 0.18
CYCSSL | -0.253 ± 0.2
CYFCWDFLIGCNFTHNAQ | 7.237 ± 0.063
CYGDAWSWEISMFCCVCRGF | 7.523 ± 0.042
CYHRKFVLLFFLSNR | inactive
CYKWLAYY | -1.44 ± 0.75
CYLYFIEYWFSEAPYFTSER | -0.959 ± 1.1
CYMVRGYSFSNRWTAHGHEM | 2.51 ± 0.21
CYRYVGCSTYSTDQVVCAYK | 6.006 ± 0.051
CYVLFIRSDYGTWSMVH | 4.53 ± 0.051
CYVNWGCNGEISGIVFDSMK | inactive

Substance | amyloid nucleation score
CYVSFCKGA | 0.049 ± 0.76
CYYMCAYRGVAK | 0.637 ± 0.36
DACAFVCLYWNVLTRFELMP | -0.458 ± 0.32
DALGSYWMTAMTF | 0.371 ± 0.44
DAMRVASEHIIVTAAAS | 2.72 ± 0.12
DANLLFGYFPCPCT | inactive
DATNQRYVPRLFHKMSITGS | 0.848 ± 0.57
DCLGVSFNDFQFLLVSAITR | inactive
DDIKIWFRATVHVVF | inactive
DDTLVVLPTRYLTPIWEMH | 2.4 ± 0.18
DECCMWMVLPEGSPAQRPLG | 1.04 ± 0.34
DEIIQRWIFNFIWDRLFYLR | 0.94 ± 0.14
DELDVFG | -0.893 ± 0.44
DESIEYSDSGGSCSFPVSK | inactive
DETYHKYDRFWLGVMSFGFY | -0.787 ± 0.34
DEWQRGRTLSDTF | -0.295 ± 0.76
DFCGRG | -0.152 ± 0.76
DFCWAFRAASLSRGVRLAAV | 3.23 ± 0.11
DFDGRRHSDNDLSWNSNF | -1.42 ± 1.1
DFNSDFAGLLLDTNKYYIHD | -0.088 ± 1.1
DFRCADCLKINFSIVQSK | 7.257 ± 0.05
DFRKNANRLLRIYGVMRECA | -0.016 ± 0.19
DFSLSGCPGMNRGDYDLHSK | inactive
